Substrate in series [1]: NO
The series can be described thus: colorimetric NH2OH consumption. The series is classed as biochemical, Nitrososphaera viennensis. As to conditions: aerobic, dissolved O2 as oxidant, pH 7.5, 30°C. The text has this:
colorimetric NH2OH consumption on Ns. viennensis NirK

Substrate in the series “purified protein”: O=NO
The series can be described thus: purified protein. Type of series: biochemical, Nitrososphaera viennensis. As to conditions: anoxic, 0.5 mM benzyl viologen, 0.24 mM dithionite, 20 mM phosphate pH 6.5, 25°C, labelled compound.

Experimental findings from article PMC6308003, “Nitric Oxide Production from Nitrite Reduction and Hydroxylamine Oxidation by Copper-containing Dissimilatory Nitrite Reductase (NirK) from the Aerobic Ammonia-oxidizing Archaeon, Nitrososphaera viennensis” (Microbes and Environments, 2018) are described below.

B1: Ns. viennensis NirK (Nitrososphaera viennensis EN76) (protein)
chain: APTGVTRHYTLIANEMEVQVAPDNALHPGGIKYNAMVFNGTIPGPVMASNAGDTVEITLKNEGKQIHSIDFHAAIGPSQVLSGNIAAGESKTWTFNTPNSGAFMYHCGADALNGVWEHIANGMYGAFVVHPTNEAPAKEFYVAFGEIYNSADGGLFVGANGTGSFDIMKFATEQPDLILTNGMAHRYVPAIGQSVKLDLNANATVFQVKPGELTRWYILAPGPNEGVSFHFISGQIDVRDGSFKTRNMAPVRNEETWWIPVGSASVIESVFPEEGLYVGVDHNMAHVLRGGAFAVLATNNSTADDVPPEAWVPSKAWLNEHAEMGGSMMGGSAGNNATSGGNTTSG
notes: signal peptide Met1-Ala24 removed, 6xHis tag (pCold I), E. coli BL21(DE3), Cu-reconstituted
Take B1: in series [1], the Km (in general, the concentration of substrate that gives half-maximal velocity) was 97 µM; the kcat (usually the number of substrate molecules converted per active site and unit of time at saturation) came out at 0.039 s⁻¹. In “purified protein”, the Km was 287 µM and the kcat worked out at 3.1 s⁻¹.
